In patent publication US20240254182A1 (PROVINCIAL HEALTH SERVICES AUTHORITY, published 2024):

Columns and labels:
[1] = target: T1, WT G-CSFR(Ig-CRH), purified, tag cleaved (human, UniProt Q99062 26-331); assay: SPR, WT G-CSFR(Ig-CRH) amine-coupled, G-CSFE injected, single-cycle kinetics
T1 construct: also called G-CSFRWT; wild type G-CSFR(Ig-CRH)
T1 chain: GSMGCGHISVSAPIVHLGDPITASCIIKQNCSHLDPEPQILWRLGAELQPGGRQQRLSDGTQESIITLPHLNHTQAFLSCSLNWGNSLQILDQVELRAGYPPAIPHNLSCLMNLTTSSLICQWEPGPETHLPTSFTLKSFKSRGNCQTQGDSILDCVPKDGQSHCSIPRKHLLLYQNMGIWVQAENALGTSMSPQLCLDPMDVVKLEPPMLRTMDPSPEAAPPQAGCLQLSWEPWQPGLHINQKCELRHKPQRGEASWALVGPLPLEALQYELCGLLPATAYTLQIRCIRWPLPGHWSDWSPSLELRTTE
Description: (§1) The SPR binding assays were carried out on a Biacore T200 instrument (GE Healthcare, Mississauga, ON, Canada) with PBS-T (PBS+0.05% (v/v) Tween 20) running buffer at a temperature of 25° C. CM5 Series S sensor chip, Biacore amine coupling kit (NHS, EDC and 1 M ethanolamine), and 10 mM sodium acetate buffers were all purchased from GE Healthcare. PBS running buffer with 0.05% Tween20 (PBS-T) was purchased from Teknova Inc. (Hollister, CA). Designs were assessed in three different immobilization orientations.
To assess binding affinity of G-CSFE to G-CSFRWT, recombinant G-CSFRWT purified as described in Example 5 was captured as described above in this Example. Using single-cycle kinetics, six concentrations of a two-fold dilution series of each G-CSFE mutant starting at […] with a blank buffer control were sequentially injected as described above. The same sample titration was also performed on a reference cell with no variants captured. The G-CSFRWT surface was regenerated as described above.

[2] = target: T2, design 134 G-CSFR(Ig-CRH)E, tag cleaved (human, UniProt Q99062 26-331); assay: SPR, G-CSFRE amine-coupled, G-CSFE injected, single-cycle kinetics
T2 construct: also called design 137 G-CSFR(Ig-CRH)E
T2 chain: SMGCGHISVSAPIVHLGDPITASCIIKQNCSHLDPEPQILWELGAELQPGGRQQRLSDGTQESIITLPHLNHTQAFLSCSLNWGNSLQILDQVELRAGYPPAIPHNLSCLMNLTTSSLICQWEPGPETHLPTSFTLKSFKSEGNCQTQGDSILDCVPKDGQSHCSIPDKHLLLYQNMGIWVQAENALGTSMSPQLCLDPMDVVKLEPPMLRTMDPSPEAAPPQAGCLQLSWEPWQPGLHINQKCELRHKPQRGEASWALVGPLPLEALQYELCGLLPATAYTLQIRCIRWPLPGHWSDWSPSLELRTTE
Description: as §1
To determine binding affinity of G-CSFE to G-CSFRE the G-CSFRE mutant was captured by standard amine coupling as described by the manufacturer (GE LifeSciences). Briefly, immediately after EDC/NHS activation, a 5 μg/mL solution of G-CSFRE in 10 mM NaOAc, pH 5.0, was injected at a flow rate of 5 μL/min until a receptor density of ˜700-900 RU was reached. The remaining active groups were quenched by a 420 s injection of 1 M ethanolamine hydrochloride-NaOH pH 8.5 at 10 μL/min. Using single-cycle kinetics, six concentrations of a two-fold dilution series of the corresponding G-CSFE mutant starting at 200 nM with a blank buffer control were sequentially injected at 25 μL/min for 300 s with a 1800 s dissociation phase, resulting in a set of sensorgrams with a buffer blank reference. The same sample titration was also performed on a reference cell with no variants captured. The chip was regenerated to prepare for the next injection cycle by one pulse of 10 mM glycine/HCl, pH 2.0, for 30 s at 30 μL/min.
Double-referenced sensorgrams from duplicate or triplicate repeat injections were analyzed using Biacore™ T200 Evaluation Software v3.0 and fit to the 1:1 Langmuir binding model.

B1: design 134 G-CSFE, tag cleaved (ligand)
chain: TPLGPASSLPQSFLLKCLEQVRKIQGDGAALQEKLCATYKLCHPERLVLLGHSLGIPWAPLSSCPSQALQLAGCLSQLHSGLFLYQGLLQALEGISPELGPTLDTLQKDVARFATTIWQQMRRLGMAPALQPTQGAMPAFASAFQRRAGGVLVASHLQSFLEVSYRVLRHLAQAAAENLYFQ
- KD fold change (against WT:WT) [1]: 465 fold
- KD fold change (against WT:WT) [2]: 1 fold
